{"source": "patent US20240317872A1", "about": "(WUXI BIOLOGICS IRELAND, published 2024)", "binders": {"B1": {"name": "T8311-U14T2.G25R-54.uIgG1 (bispecific antibody)", "heavy": "not shown", "light 1": "SYELTQPPSVSVSPGQTASITCSGSELPKRYAYWYQQKPGQSIVRVIYKDSERPSGISERFSGSSSGNTATLTISGTQAMDEADYYCSSTYGDRKLPIFGGGTKLTVLGQPKAAPSVTLFPPSSEELQANKATLVCLISDFYPGAVTVAWKADSSPVKAGVETTTPSKQSNNKYAASSYLSLTPEQWKSHKSYSCQVTHEGSTVEKTVAPTECS", "light 2": "SYVLTQPPSVSVAPGQTARMTCGGDNIGIKIVHWYQQKAGQAPVLVVYDDNDRPSGIPDRFSGSNSGNTATLTISRVAAGDEADYYCQVWDRRSDHVVFGGGTKLTVLPDIQNPDCAVYQLRDSKSSDKSVCLFTDFDSQTQVSQSKDSDVYITDKCVLDMRSMDFKSNSAVAWSQKSDFACANAFQNSIICEDTFFPS", "notes": "also called T8311-54"}}, "target": "T1, Human PD-L1 (human, UniProt Q9NZQ7 19-290)", "T1 construct": "whole, on cells; also called target-A", "T1 sequence (Q9NZQ7 19-290)": "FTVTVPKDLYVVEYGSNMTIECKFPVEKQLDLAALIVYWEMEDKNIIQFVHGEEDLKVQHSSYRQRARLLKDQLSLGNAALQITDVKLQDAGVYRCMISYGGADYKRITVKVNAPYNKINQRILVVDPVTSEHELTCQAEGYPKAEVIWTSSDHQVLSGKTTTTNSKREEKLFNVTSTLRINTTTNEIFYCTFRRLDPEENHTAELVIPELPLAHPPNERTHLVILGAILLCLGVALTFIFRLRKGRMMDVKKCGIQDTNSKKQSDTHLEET", "experiment": "flow cytometry on CHO-K1 cells expressing human PD-L1", "method": "Human PD-L1-expressing cells W315-CHOK1.hPro1.C11 (×10^5 cells/well) and 4-1BB-expressing cells WBP342-CHO-K1.hPro1.C1 were incubated with various concentrations of testing antibodies at 4° C. for 1 hour. […] The cells were then washed and resuspended in DPBS with 1% BSA. MFI of the cells was measured by a flow cytometer and analyzed by FlowJo.\nAs shown in FIG. 7 and Table 7, compared to the reference molecule, the T8311 variants kept the target binding ability very well."}
{"binder": "B1", "values": [{"measurement": "EC50", "result": 0.23, "unit": "nM"}, {"measurement": "Top (MFI)", "result": 8120, "unit": "MFI"}]}
